ECM binding ratio (standard = 1) (ratio to standard antibody) and Kd data for 22 molecules are collected here from patent publication US20170267783A1 (published 2017).

Substitutions are numbered along the chain they refer to.

The labels stand for the following.
B1: TR01H040-E2702GsKsc/H0610-E2704sEpsc/L0208-k0 (bispecific antibody, human IgG4 S228P, kappa, N297A)
heavy 1: QVQLVESGGGLVQPGRSLRLSCAASGFTFSNAWMHWVRQAPGKGLEWVAQIKDKSQNYATYYAESVKGRFTISRADSKNSIYLQMNSLKTEDTAVYYCRYVHYSASYGVDAWGQGTTVTVSSASTKGPSVFPLAPCSRSTSESTAALGCLVKDYFPEPVTVSWNSGALTSGVHTFPAVLQSSGLYSLSSVVTVPSSSLGTKTYTCNVDHKPSNTKVDKRVESKYGPPCPPCPAPEFRGGPKVFLFPPKPKDTLMISRTPEVTCVVVDVSQEDPEVQFNWYVDGVEVHNAKTKPREEQFASTYRVVSVLTVLHQDWLNGKEYKCKVSNKGLPSSIEKTISKAKGQPREPQVYTLPPSQKEMTKNQVSLTCLVKGFYPSDIAVEWESNGQPENNYKTTPPVLDSDGSFFLYSKLTVDKSRWQEGNVFSCSVMHEALHNRYTQKSLSLSP
heavy 2: QVQLVQSGAEVKKPGASVKVSCKASGYTFTDYEMHWIRQPPGQGLEWIGAIDGKTPDTAYSQKFKGRVTLTADKSTSTAYMELSSLTSEDTAVYYCTRFYSYTYWGQGTLVTVSSASTKGPSVFPLAPCSRSTSESTAALGCLVKDYFPEPVTVSWNSGALTSGVHTFPAVLQSSGLYSLSSVVTVPSSSLGTQTYTCNVDHKPSNTKVDKRVESKYGPPCPPCPAPEFRGGPKVFLFPPKPKDTLMISRTPEVTCVVVDVSQEDPEVQFNWYVDGVEVHNAKTKPREEQFASTYRVVSVLTVLHQDWLNGKEYKCKVSNKGLPSSIEKTISKAKGQPREPQVYTLPPSQEEMTKNQVSLTCLVKGFYPSDIAVEWESNGQPENNYKTTPPVLDSDGSFFLYSKLTVDKSRWQEGNVFSCSVMHEALHNHYTQESLSLSP
light: DIVMTQSPLSLPVTPGEPASISCRSSQSPVHSNRNTYLHWYQQKPGQAPRLLIYKVSNRFWGVPDRFSGSGSGTDFTLKISRVEAEDVGVYYCYQGTQVPYTFGQGTKLEIKRTVAAPSVFIFPPSDEQLKSGTASVVCLLNNFYPREAKVQWKVDNALQSGNSQESVTEQDSKDSTYSLSSTLTLSKADYEKHKVYACEVTHQGLSSPVTKSFNRGEC
B2: TR01H040-E2702GsKsc/H0610-E2704sEpsc/L0211-k0 (bispecific antibody, human IgG4 S228P, kappa, N297A)
heavy 1: B1 heavy 1
heavy 2: B1 heavy 2
light: B1 light with S28P, W61S
B3: TR01H067-E2702GsKsc/GCH054-E2704sEpsc/L0222-k0 (bispecific antibody, human IgG4 S228P, kappa, N297A)
heavy 1: B1 heavy 1 with A75D, I81L, S104A
heavy 2: B1 heavy 2 with K19T, Q43E, K54E, Q62E
light: B1 light with L38I, H39Q, W61S
B4: TR01H040-E2702GsKsc/H0610-E2704sEpsc/L0000-k0 (bispecific antibody, human IgG4 S228P, kappa, N297A)
heavy 1: B1 heavy 1
heavy 2: B1 heavy 2
light: B1 light with P29L, W61S, Y94G
B5: TR01H084-E2702GsKsc/GCH094-E2704sEpsc/L0011-k0 (bispecific antibody, human IgG4 S228P, kappa, N297A)
heavy 1: B1 heavy 1 with L11V, R16G, S104A, S106G, A111I
heavy 2: B1 heavy 2 with K19T, I37V, P40A, Q43E, I48M, K54E, Q62E
light: B1 light with S28P, P29L, W61S, Y94G
B6: TR01H040-E2702GsKsc/H0610-E2704sEpsc/L0201-k0 (bispecific antibody, human IgG4 S228P, kappa, N297A)
heavy 1: B1 heavy 1
heavy 2: B1 heavy 2
light: B1 light with S28P, W61S, Y94G
B7: TR01H082-E2702GsKsc/GCH094-E2704sEpsc/L0011-k0 (bispecific antibody, human IgG4 S228P, kappa, N297A)
heavy 1: B1 heavy 1 with A75D, I81L, S104A, S106G
heavy 2: B1 heavy 2 with K19T, I37V, P40A, Q43E, I48M, K54E, Q62E
light: B1 light with S28P, P29L, W61S, Y94G
B8: TR01H040-E2702GsKsc/H0610-E2704sEpsc/L0204-k0 (bispecific antibody, human IgG4 S228P, kappa, N297A)
heavy 1: B1 heavy 1
heavy 2: B1 heavy 2
light: B1 light with W61R, Y94G
B9: TR01H113-E2702GsKsc/GCH094-E2704sEpsc/L0011-k0 (bispecific antibody, human IgG4 S228P, kappa, N297A)
heavy 1: B1 heavy 1 with L11V, R16G, Y62V, S104A, S106G, A111I
heavy 2: B1 heavy 2 with K19T, I37V, P40A, Q43E, I48M, K54E, Q62E
light: B1 light with S28P, P29L, W61S, Y94G
B10: TR01H113-E2702GsKsc/GCH065-E2704sEpsc/L0011-k0 (bispecific antibody, human IgG4 S228P, kappa, N297A)
heavy 1: B1 heavy 1 with L11V, R16G, Y62V, S104A, S106G, A111I
heavy 2: B1 heavy 2 with K19T, Q43E, K54P, Q62E
light: B1 light with S28P, P29L, W61S, Y94G
B11: TR01H067-E2702GsKsc/GCH054-E2704sEpsc/L0212-k0 (bispecific antibody, human IgG4 S228P, kappa, N297A)
heavy 1: B1 heavy 1 with A75D, I81L, S104A
heavy 2: B1 heavy 2 with K19T, Q43E, K54E, Q62E
light: B1 light with S25P, W61S
B12: TR01H067-E2702GsKsc/GCH054-E2704sEpsc/L0201-k0 (bispecific antibody, human IgG4 S228P, kappa, N297A)
heavy 1: B1 heavy 1 with A75D, I81L, S104A
heavy 2: B1 heavy 2 with K19T, Q43E, K54E, Q62E
light: B1 light with S28P, W61S, Y94G
B13: TR01H084-E2702GsKsc/GCH065-E2704sEpsc/L0011-k0 (bispecific antibody, human IgG4 S228P, kappa, N297A)
heavy 1: B1 heavy 1 with L11V, R16G, S104A, S106G, A111I
heavy 2: B1 heavy 2 with K19T, Q43E, K54P, Q62E
light: B1 light with S28P, P29L, W61S, Y94G
B14: TR01H082-E2702GsKsc/GCH065-E2704sEpsc/L0011-k0 (bispecific antibody, human IgG4 S228P, kappa, N297A)
heavy 1: B1 heavy 1 with A75D, I81L, S104A, S106G
heavy 2: B1 heavy 2 with K19T, Q43E, K54P, Q62E
light: B1 light with S28P, P29L, W61S, Y94G
B15: TR01H109-E2702GsKsc/GCH094-E2704sEpsc/L0011-k0 (bispecific antibody, human IgG4 S228P, kappa, N297A)
heavy 1: B1 heavy 1 with Y62V, A75D, I81L, S104A, S106G
heavy 2: B1 heavy 2 with K19T, I37V, P40A, Q43E, I48M, K54E, Q62E
light: B1 light with S28P, P29L, W61S, Y94G
B16: TR01H113-E2702sKsc/GCH065-E2704sEpsc/L0011-k0 (bispecific antibody, human IgG4 S228P, kappa, N297A)
heavy 1: B1 heavy 1 with L11V, R16G, Y62V, S104A, S106G, A111I, R437H
heavy 2: B1 heavy 2 with K19T, Q43E, K54P, Q62E
light: B1 light with S28P, P29L, W61S, Y94G
B17: TR01H109-E2702GsKsc/GCH065-E2704sEpsc/L0011-k0 (bispecific antibody, human IgG4 S228P, kappa, N297A)
heavy 1: B1 heavy 1 with Y62V, A75D, I81L, S104A, S106G
heavy 2: B1 heavy 2 with K19T, Q43E, K54P, Q62E
light: B1 light with S28P, P29L, W61S, Y94G
B18: TR01H040-E2702GsKsc/H0610-E2704sEpsc/L0206-k0 (bispecific antibody, human IgG4 S228P, kappa, N297A)
heavy 1: B1 heavy 1
heavy 2: B1 heavy 2
light: B1 light with W61S
B19: TR01H040-E2702GsKsc/H0610-E2704sEpsc/L0203-k0 (bispecific antibody, human IgG4 S228P, kappa, N297A)
heavy 1: B1 heavy 1
heavy 2: B1 heavy 2
light: B1 light with L38I, W61S, Y94G
B20: TR01H040-E2702GsKsc/H0610-E2704sEpsc/L0209-k0 (bispecific antibody, human IgG4 S228P, kappa, N297A)
heavy 1: B1 heavy 1
heavy 2: B1 heavy 2
light: B1 light with L38I, W61S
B21: TR01H082-E2702GsKsc/GCH094-E2704sEpsc/L0201-k0 (bispecific antibody, human IgG4 S228P, kappa, N297A)
heavy 1: B1 heavy 1 with A75D, I81L, S104A, S106G
heavy 2: B1 heavy 2 with K19T, I37V, P40A, Q43E, I48M, K54E, Q62E
light: B1 light with S28P, W61S, Y94G
B22: TR01H002-E22Hh/GLS3108-k0/GL4-E22Hk/H0000-E22L (bispecific antibody, human IgG1, kappa, L234A L235A, N297A)
heavy 1: QVQLVESGGGVVQPGRSLRLSCAASGFTFSNAWMHWVRQAPGKGLEWVAQIKAKSNNYKKYYAESVKGRFTISRDDSKNSLYLQMNSLKTEDTAVYYCRYVHYYYYYGVQAWGQGTTVTVSSASTKGPSVFPLAPSSKSTSGGTAALGCLVKDYFPEPVTVSWNSGALTSGVHTFPAVLQSSGLYSLSSVVTVPSSSLGTQTYICNVNHKPSNTKVDKKVEPKSCDKTHTCPPCPAPEAAGGPSVFLFPPKPKDTLMISRTPEVTCVVVDVSHEDPEVKFNWYVDGVEVHNAKTKPREEQYASTYRVVSVLTVLHQDWLNGKEYKCKVSNKALPAPIEKTISKAKGQPREPQVYTLPPSRCELTKNQVSLSCAVKGFYPSDIAVEWESNGQPENNYKTTPPVLDSDGSFFLVSKLTVDKSRWQQGNVFSCSVMHEALHNHYTQKSLSLSPDYKDDDDK
light 1: B1 light with P29L, H39S, W61S, Y94G
heavy 2: DIVMTQSPLSLPVTPGEPASISCRSSQSLVHSNRNTYLHWYQQKPGQAPRLLIYKVSNRFSGVPDRFSGSGSGTDFTLKISRVEAEDVGVYYCSQNTHVPPTFGQGTKLEIKSSASTKGPSVFPLAPSSKSTSGGTAALGCLVKDYFPEPVTVSWNSGALTSGVHTFPAVLQSSGLYSLSSVVTVPSSSLGTQTYICNVNHKPSNTKVDKKVEPKSCDKTHTCPPCPAPEAAGGPSVFLFPPKPKDTLMISRTPEVTCVVVDVSHEDPEVKFNWYVDGVEVHNAKTKPREEQYASTYRVVSVLTVLHQDWLNGKEYKCKVSNKALPAPIEKTISKAKGQPREPQVCTLPPSRDELTKNQVSLWCLVKGFYPSDIAVEWESNGQPENNYKTTPPVLDSDGSFFLYSKLTVDKSRWQQGNVFSCSVMHEALHNHYTQKSLSLSPHHHHHHHH
light 2: QVQLVQSGAEVKKPGASVKVSCKASGYTFTDYEMHWIRQPPGQGLEWIGAIDPKTGDTAYSQKFKGRVTLTADKSTSTAYMELSSLTSEDTAVYYCTRFYSYTYWGQGTLVTVSSASVAAPSVFIFPPSDEQLKSGTASVVCLLNNFYPREAKVQWKVDNALQSGNSQESVTEQDSKDSTYSLSSTLTLSKADYEKHKVYACEVTHQGLSSPVTKSFNRGEC
notes: CD3 arm + GPC3 arm with VH/VL exchanged

One assay concerns the target extracellular matrix (ECM; BD Matrigel). The assay is described as follows: ECL on Matrigel-coated plate, signal divided by that of MRAH-G1d/MRAL-k0.
With B1, the ECM binding ratio (standard = 1) (ratio to standard antibody) came to 50.4.
Turning to B2, the ECM binding ratio (standard = 1) (ratio to standard antibody) stood at 15.5.
As to B3, the ECM binding ratio (standard = 1) (ratio to standard antibody) came to 0.6.
For the molecule B4, the ECM binding ratio (standard = 1) (ratio to standard antibody) was determined as 0.8.
As for B5, the ECM binding ratio (standard = 1) (ratio to standard antibody) is 1.2.
Same read-out and setting: the same measure for B6: 0.8; for B7: 0.7.
Same read-out and setting: with B8 the figure was 4.4; with B9, 1.6; with B10, 2.5.
Turning to B11, the ECM binding ratio (standard = 1) (ratio to standard antibody) amounted to 3.3.
Take B12: the ECM binding ratio (standard = 1) (ratio to standard antibody) amounted to 0.5.
Still for that read-out and setting: with B13 the figure was 1.3; with B14, 1.7.
On the same count and under the same terms, the same measure for B15: 0.4; for B16: 0.3; for B17: 0.7.
For the molecule B18, the ECM binding ratio (standard = 1) (ratio to standard antibody) is 15.4.
On to B19, for which the ECM binding ratio (standard = 1) (ratio to standard antibody) amounted to 0.8.
Take B20: the ECM binding ratio (standard = 1) (ratio to standard antibody) is 7.4.
Consider B21, for which the ECM binding ratio (standard = 1) (ratio to standard antibody) is 1.1.

In the next assay the target is T1, soluble human CD3ε chain (human, UniProt P07766 23-126).
T1 construct: also called CD3 epsilon
T1 sequence (P07766 23-126 limits assumed): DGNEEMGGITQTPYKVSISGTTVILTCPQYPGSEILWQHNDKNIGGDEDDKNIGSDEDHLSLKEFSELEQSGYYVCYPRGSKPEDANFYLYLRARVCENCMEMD
Nature of the assay: SPR (Biacore).
The molecule B22 gave a Kd of 4.76 nM.

One may read the Kd as a measure of binding affinity in units of concentration.
